The source of these data is patent publication US20240337665A1 (INDI MOLECULAR, published 2024).

Bridge positions count the residues as written; N and C are the ends. Square brackets hold non-standard residues; d marks the D form. Ends that are not written are not given here. I, II: the chains in the order shown. Lys(N3) = [N-]=[N+]=NCCCC[C@H](N)C(=O)O; Pra = C#CC[C@H](N)C(=O)O

In experiment [1] the target is T1, Plasmodium falciparum Histidine Rich Protein-2 (Plasmodium falciparum).
T1 construct: the construct used in the assay is not described; also called Pf.HRP-2
T1 chain: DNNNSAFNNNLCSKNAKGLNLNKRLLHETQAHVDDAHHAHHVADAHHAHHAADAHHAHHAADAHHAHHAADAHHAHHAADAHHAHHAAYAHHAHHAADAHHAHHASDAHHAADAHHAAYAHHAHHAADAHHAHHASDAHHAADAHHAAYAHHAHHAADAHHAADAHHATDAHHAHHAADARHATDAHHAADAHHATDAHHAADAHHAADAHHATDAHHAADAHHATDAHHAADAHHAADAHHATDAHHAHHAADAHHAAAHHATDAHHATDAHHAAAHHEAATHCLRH
The experiment in a line: assay not described; biligand cy(YKYYR)-linker-cy(GWNVDL).

The target of experiment [2] is T1, Plasmodium falciparum Histidine Rich …. Put plainly: assay not described.
In experiment [3] the target is T2, Full-length His-tagged IL-17F protein (ab167911, Abcam) (human, UniProt Q96PD4 31-163).
T2 construct: Bought protein, called full-length and His-tagged; also called human IL-17F protein; recombinant human IL-17F protein; not shown: His tag
T2 sequence: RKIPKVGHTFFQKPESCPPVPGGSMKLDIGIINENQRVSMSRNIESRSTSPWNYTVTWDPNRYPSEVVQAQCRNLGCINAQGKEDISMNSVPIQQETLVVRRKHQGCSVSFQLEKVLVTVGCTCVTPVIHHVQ
The experiment in a line: point ELISA; recombinant human IL-17F against IL-17A.

For experiment [4], the target named is T2, Full-length His-tagged IL-17F protein …. The experiment in a line: binding to His-tagged IL-17F human recombinant protein.
Experiment [5] shares this target. Put plainly: binding to His-tagged IL-17F human recombinant protein (ELISA format); reference: the individual PCC macrocycles Cy(RRATSX1X2) and Cy(RSYNKX1X2).
Experiment [6] has the same target. The experiment in a line: fluorescence polarization in solution; in solution by fluorescence polarization.
Experiment [7] shares this target. Put plainly: binding to His-tagged IL-17F human recombinant protein (ELISA format); PEG3-linked biligand; binding to His-tagged IL-17F, not in solution.
For experiment [8], the target named is T1, Plasmodium falciparum Histidine Rich …. The experiment in a line: assay not described; monoligand cy(GWNVDL).
The target in experiment [9] is T2, Full-length His-tagged IL-17F protein …. The experiment in a line: point ELISA; macrocycle on NeutrAvidin plate, His-tagged IL-17F against His-tagged IL-17A.
The target in experiment [10] is T3, His6-PEG3-SQFEKFPSPPVPGGS (not fully specified (N-terminus); printed as His6-PEG3-SQFEKFPSPPVPGGS).
T3 construct: Synthetic; residues N-terminal to C48S scrambled
T3 peptide: SQFEKFPSPPVPGGS
Put plainly: point ELISA; macrocycle on NeutrAvidin plate, His-tagged epitope, anti-His-AP detection.

The target in experiment [11] is T2, Full-length His-tagged IL-17F protein …. Put plainly: sandwich ELISA; biotinylated macrocycle on NeutrAvidin plate, His-tagged IL-17F titrated, anti-His-AP detection.
Experiment [12] has the same target. The experiment in a line: point ELISA; surface-immobilized macrocycle with IL-17F, IL-17A or no protein.
Experiment [13] has the same target. Put plainly: fluorescence polarization in solution; IL-17F titrated against 5-FITC-tagged macrocycle; 5-FITC-tagged LF1, fluorescence polarization in solution.
For experiment [14], the target named is T4, His6-PEG3-FFQKPESSPPVPGGS (human, not fully specified (N-terminus); printed as His6-PEG3-FFQKPESSPPVPGGS).
T4 construct: Not clear whether the listing entry holds the His6
T4 peptide: FFQKPESSPPVPGGS
The experiment in a line: point ELISA; macrocycle on NeutrAvidin plate, 2 µM His-tagged epitope.

The target of experiment [15] is T5, His6-PEG3-FFQKPESSPVSPGPG (not fully specified (N-terminus); printed as His6-PEG3-FFQKPESSPVSPGPG).
T5 construct: Synthetic; residues C-terminal to C48S scrambled
T5 peptide: FFQKPESSPVSPGPG
The description is as above.

Experiment [16] addresses T1, Plasmodium falciparum Histidine Rich …. Put plainly: assay not described; two Cy(YKYYR) PCCs joined by about a 1.5 nm linker.
Experiment [17] shares this target. Put plainly: assay not described; monoligand Cy(YKYYR).
The target of experiment [18] is T2, Full-length His-tagged IL-17F protein …. Put plainly: point ELISA; macrocycle on NeutrAvidin plate, His-tagged IL-17F against His-tagged IL-17A at 100 nM.
Experiment [19] shares this target. The experiment in a line: sandwich ELISA; biotinylated macrocycle on NeutrAvidin plate, His-tagged IL-17F titrated.
The target is the same in experiment [20]. Put plainly: not stated in the sentence (same number as the ELISA EC50 of paragraph 504); monoligand Cy(RSYNKX1X2), not the biligand.
The target is the same in experiment [21]. Put plainly: fluorescence polarization in solution; IL-17F titrated against 5-FITC-tagged macrocycle; 5-FITC-tagged LF2, fluorescence polarization in solution.

B1: cy(YKYYR)-linker-cy(GWNVDL) (designed binder)
peptide 1: YKYYR
peptide 2: GWNVDL
modifications: not fully specified (bridges); printed as cy(YKYYR)-linker-cy(GWNVDL)
notes: also called The resultant biligand
B1 returned an EC50 in [1] of 0.54 nM. For the same molecule, in experiment [2], the “fold improvement over the better of the two ligand components” value stood at 100 fold.

B2: Biotin-PEG3-Cy(RSYNKX1X2)-PEG3-Cy(RRATSX1X2) (designed binder)
peptide 1: RSYNK[Lys(N3)][Pra]
peptide 2: RRATS[Lys(N3)][Pra]
modifications: triazole I:6-I:7, II:6-II:7; not fully specified (N-terminus, C-terminus); printed as Biotin-PEG3-Cy(RSYNKX1X2)-PEG3-Cy(RRATSX1X2); also: chain 1 joined to chain 2 through one PEG3 linker, backbone orders Pra-RSYNK-Az4 and Pra-RRATS-Az4, no bonds X6-X7
notes: One covalent molecule: two macrocyclic peptides joined by a single PEGylated amino acid (not a peptide linker), written here as two peptide segments; also called Bi-LF; anti-IL-17F biligand with PEG3 linker
For B2, the “selectivity for IL-17F over IL-17A” value in experiment [3] was 4 ratio IL-17F:IL-17A. Further, in experiment [4], the “fold better binder than the biligands with other linkers” value is ~10 fold and the “times stronger than the other biligands” value is ≥ 16 fold. Further, in experiment [5], the “fold improvement in affinity relative to the individual PCC macrocyclic ligands” value is > 100 fold. This molecule displayed a Kd in experiment [6] of 0.252 nM. In addition, the Kd in [7] was 0.246 nM.
Molecule GWNVDL (not fully specified (bridges); also: cyclic, ring closure not given here, also called cy(GWNVDL)) [cyclic PCC with variable sequence GWNVDL] had an EC50 in experiment [8] of 50 nM.

B3: Cy(RRATSX1X2)-PEG3-biotin (peptide)
peptide: RRATS[Lys(N3)][Pra]
modifications: triazole 6-7; not fully specified (C-terminus, bridges); printed as Cy(RRATSX1X2)-PEG3-biotin; also: no peptide bond X6-X7, Pra is the true N-terminus, Az4 the true C-terminus, PEG3-biotin label at C-terminus (on Az4)
notes: Biotin-PEG3 form used on NeutrAvidin plates; also called LF1
On to B3, for which the “selectivity for IL-17F over IL-17A” value in experiment [9] is 2 ratio IL-17F:IL-17A; in experiment [12] it was 10 ratio IL-17F:IL-17A. Moreover, the results for the binding result in [10], in [14] and in experiment [15] were “no binding (tested: 2 µM epitope)”, “binds” and “binds”, respectively. The same molecule displayed an EC50 in [11] of 66 nM. The same molecule displayed a Kd in experiment [13] of 50 nM.

B4: Cy(RRAQSX1X2)-PEG3-biotin (peptide)
peptide: RRAQS[Lys(N3)][Pra]
modifications: triazole 6-7; not fully specified (C-terminus, bridges); printed as Cy(RRAQSX1X2)-PEG3-biotin; also: no peptide bond X6-X7, Pra is the true N-terminus, Az4 the true C-terminus, PEG3-biotin label at C-terminus (on Az4)
As to B4, in experiment [9], the “selectivity for IL-17F over IL-17A” value was 2 ratio IL-17F:IL-17A. Moreover, the binding result was “no binding (tested: 2 µM epitope)” in experiment [10], “binds” in [14] and “binds” in [15]. Besides, a half-maximal effect in [11] (EC50) was put at 52 nM.

B5: linked biligand of two Cy(YKYYR) PCCs (designed binder)
peptide: YKYYR
modifications: not fully specified (bridges)
notes: also called The resultant linked biligand
The molecule B5 displayed a concentration for a half-maximal effect (EC50) in [16] of 20.8 nM.
YKYYR (also: cyclic, ring type not given here, also called cyclic YKYYR) [Cy(YKYYR)]: in experiment [17], the response was half-maximal at 220 nM (EC50).

B6: Biotin-PEG3-Cy(KKGWPX1X2) (peptide)
peptide: KKGWP[Lys(N3)][Pra]
modifications: triazole 6-7; not fully specified (N-terminus, bridges); printed as Biotin-PEG3-Cy(KKGWPX1X2); also: no peptide bond X6-X7, Pra is the true N-terminus, Az4 the true C-terminus, Biotin-PEG3 label at N-terminus (on Pra)
For B6, the “selectivity for IL-17F over IL-17A” value in experiment [18] was 4 ratio IL-17F:IL-17A. Moreover, a half-maximal effect in experiment [19] (EC50) was put at 24 nM.

B7: Biotin-PEG3-Cy(RSYNKX1X2) (peptide)
peptide: RSYNK[Lys(N3)][Pra]
modifications: triazole 6-7; not fully specified (N-terminus, bridges); printed as Biotin-PEG3-Cy(RSYNKX1X2); also: no peptide bond X6-X7, Pra is the true N-terminus, Az4 the true C-terminus, Biotin-PEG3 label at N-terminus (on Pra)
notes: also called LF2
For the molecule B7, in experiment [18], the “selectivity for IL-17F over IL-17A” value was 4 ratio IL-17F:IL-17A. The molecule also returned an EC50 in experiment [19] of 15 nM. Besides, the Kd was determined as 15 nM in [20] and 28 nM in experiment [21].
